Test results: patent publication EP2014310A2 (Dyax Corporation, dated 2009)
Bridge positions count the residues as written; N and C are the ends.

What follows are binders tested against T1, human KDR-Fc fusion (R&D Systems #357-KD-050) (human, UniProt P35968 20-764) (assay: fluorescence anisotropy, fluorescein-labeled peptide).
T1 construct: bought
T1 sequence (P35968 20-764): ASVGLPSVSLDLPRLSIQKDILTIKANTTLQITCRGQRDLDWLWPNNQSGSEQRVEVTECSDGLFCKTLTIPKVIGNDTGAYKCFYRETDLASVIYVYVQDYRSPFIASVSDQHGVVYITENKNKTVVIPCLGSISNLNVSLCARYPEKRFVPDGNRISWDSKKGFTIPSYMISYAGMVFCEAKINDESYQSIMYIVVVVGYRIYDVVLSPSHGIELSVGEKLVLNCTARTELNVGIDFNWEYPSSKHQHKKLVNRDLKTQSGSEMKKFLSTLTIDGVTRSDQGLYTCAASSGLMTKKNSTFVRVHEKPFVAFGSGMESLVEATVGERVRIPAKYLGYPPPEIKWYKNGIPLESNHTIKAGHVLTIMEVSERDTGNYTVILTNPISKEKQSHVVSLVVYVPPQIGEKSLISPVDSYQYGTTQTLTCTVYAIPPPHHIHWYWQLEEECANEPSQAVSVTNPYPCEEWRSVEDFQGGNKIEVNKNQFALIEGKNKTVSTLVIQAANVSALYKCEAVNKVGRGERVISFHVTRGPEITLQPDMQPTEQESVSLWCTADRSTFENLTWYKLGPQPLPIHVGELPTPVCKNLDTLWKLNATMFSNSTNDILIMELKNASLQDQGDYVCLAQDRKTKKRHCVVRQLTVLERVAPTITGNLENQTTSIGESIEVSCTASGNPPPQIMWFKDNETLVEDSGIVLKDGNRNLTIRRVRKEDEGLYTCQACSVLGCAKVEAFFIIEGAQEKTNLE

| Binder | Kd [nM] | binding result |
| --- | --- | --- |
| Ac-AGSDWCRVDWYYCWLMGTGGGK-NH2 (disulfide 6-13 (inferred); not fully specified) [SEQ ID NO:270] | 64 | – |
| Ac-AGANWCEEDWYYCWITGTGGGK-NH2 (disulfide 6-13 (inferred); not fully specified) [SEQ ID NO:272] | 97 | – |
| Ac-AGANWCEEDWYYCFITGTGGGK-NH2 (disulfide 6-13 (inferred); not fully specified) [SEQ ID NO:271] | 310 | – |
| Ac-AGPDWCEEDWYYCWITGTGGGK-NH2 (disulfide 6-13 (inferred); not fully specified) [SEQ ID NO:273] | 75 | – |
| Ac-AGSNWCEEDWYYCYITGTGGGK-NH2 (disulfide 6-13 (inferred); not fully specified) [SEQ ID NO:274] | 46 | – |
| Ac-AGRNWCEEDWYYCFITGTGGGK-NH2 (disulfide 6-13 (inferred); not fully specified) [SEQ ID NO:279] | 190 | – |
| Ac-AGVNWCEEDWYYCWITGTGGGK-NH2 (disulfide 6-13 (inferred); not fully specified) [SEQ ID NO:280] | 260 | – |
| Ac-AGANWCEEDWYYCYITGTGGGK-NH2 (disulfide 6-13 (inferred); not fully specified) [SEQ ID NO:281] | 180 | – |
| Ac-AGPDWCAADWYYCYITGTGGGK-NH2 (disulfide 6-13 (inferred); not fully specified) [SEQ ID NO:275] | 57 | – |
| Ac-AGPEWCEVDWYYCWLLGTGGGK-NH2 (disulfide 6-13 (inferred); not fully specified) [SEQ ID NO:276] | 75 | – |
| Ac-AGSKWCEQDWYYCWLLGTGGGK-NH2 (disulfide 6-13 (inferred); not fully specified) [SEQ ID NO:278] | 400 | – |
| Ac-AGQAWVECYAETGYCWPRSWGTGGGK-NH2 (disulfide 8-15 (inferred); not fully specified) [SEQ ID NO:282] | 710 | – |
| Ac-AGQAWIECYAEDGYCWPRSWGTGGGK-NH2 (disulfide 8-15 (inferred); not fully specified) [SEQ ID NO:283] | 1400 | – |
| Ac-AGVGWVECYQSTGFCYHSRDGTGGGK-NH2 (cysteine pairing not given here; also: C-terminal Lys fluorescein-labeled in some assays) [SEQ ID NO:284] | 1300 | – |
| Ac-AGFTWVECHQATGRCVEWTTGTGGGK-NH2 (disulfide 8-15 (inferred); not fully specified) [SEQ ID NO:285] | 2000 | – |
| Ac-AGDSWVECDAQTGFCYSFLYGTGGGK-NH2 (disulfide 8-15 (inferred); not fully specified) [SEQ ID NO:287] | 2300 | – |
| Ac-AGERWVECRAETGFCYTWVSGTGGGK-NH2 (disulfide 8-15 (inferred); not fully specified) [SEQ ID NO:289] | 2100 | – |
| Ac-AGGGWVECRAETGHCQEYRLGTGGGK-NH2 (disulfide 8-15 (inferred); not fully specified) [SEQ ID NO:290] | 1600 | – |
| Ac-AGVAWVECYQTTGKCYTFRGGTGGGK-NH2 (disulfide 8-15 (inferred); not fully specified) [SEQ ID NO:291] | ~2000 | – |
| Ac-AGEGWVECFANTGACFTYPRGTGGGK-NH2 (disulfide 8-15 (inferred); not fully specified) [SEQ ID NO:292] | 2100 | – |

| Binder | Kd [nM] | binding result |
| --- | --- | --- |
| Ac-GDPPLCYFVGTQEWHHCNPFDPGGGK-NH2 (disulfide 6-17 (inferred); not fully specified) [SEQ ID NO:296] | 600 | – |
| Ac-AGVWECAKTFPFCHWFGTGGGK-NH2 (disulfide 6-13 (inferred); not fully specified) [SEQ ID NO:265] | 2600 | – |
| Ac-GDDSYCMMNEKGWWNCYLYDPGGGK-NH2 (cysteine pairing not given here; also: C-terminal Lys fluorescein-labeled in some assays) [SEQ ID NO:297] | 1300 | – |
| Ac-GDPAQCWESNYQGIFFCDNPDPGGGK-NH2 (disulfide 6-17 (inferred); not fully specified) [SEQ ID NO:298] | 2300 | – |
| Ac-GDNWKCEYTQGYDYTECVYLDPGGGK-NH2 (disulfide 6-17 (inferred); not fully specified) [SEQ ID NO:302] | 820 | – |
| Ac-AGWVECWWKSGQCYEFGTGGGK-NH2 (cysteine pairing not given here; also: C-terminal Lys fluorescein-labeled for some assays, unlabeled for others) [SEQ ID NO:266] | 1300 | – |
| Ac-GDSSVCFEYSWGGEVCFRYDPGGGK-NH2 (disulfide 6-16 (inferred); not fully specified; also: C-terminal Lys fluorescein-labeled in some assay forms) [SEQ ID NO:487] | 58 | – |
| Ac-GDSRVCWEYSWGGQICLGYDPGGGK-NH2 (disulfide 6-16 (inferred); not fully specified; also: C-terminal Lys fluorescein-labeled in some assay forms) [SEQ ID NO:488] | 320 | – |
| Ac-AQQVQYQFFLGTPRYEQWDLDKGGK-NH2 (not fully specified) [SEQ ID NO:304] | 1700 | – |
| Ac-AQRSWYLGPPYYEEWDPIPNGGK-NH2 (not fully specified) [SEQ ID NO:309] | 1800 | – |
| Ac-AGPWTCWLEDHLACAMLGTGGGK-NH2 (disulfide 6-14 (inferred); not fully specified) [SEQ ID NO:312] | 3900 | – |
| Ac-AGDWGCSLGNWYWCSTEGTGGGK-NH2 (disulfide 6-14 (inferred); not fully specified) [SEQ ID NO:313] | 2000 | – |
| Ac-GSNSHCYIWDGMWLCFPDAPGGGK-NH2 (disulfide 6-15 (inferred); not fully specified) [SEQ ID NO:315] | 740 | – |
| Ac-AGWIQCNSITGHCTSGGTGGGK-NH2 (disulfide 6-13 (inferred); not fully specified) [SEQ ID NO:268] | 240 | – |
| Ac-SGRLDCDKVFSGPYGKVCVSYGSGGGK-NH2 (disulfide 6-18 (inferred); not fully specified) [SEQ ID NO:316] | 1050 | – |
| Ac-SGRLDCDKVFSGPHGKICVNYGSGGGK-NH2 (disulfide 6-18 (inferred); not fully specified) [SEQ ID NO:317] | ~2000 | – |
| Ac-SGRTTCHHQISGPHGKICVNYGSGGGK-NH2 (disulfide 6-18 (inferred); not fully specified) [SEQ ID NO:318] | 650 | – |
| Ac-SGAHQCHHWTSGPYGEVCFNYGSGGGK-NH2 (disulfide 6-18 (inferred); not fully specified) [SEQ ID NO:319] | ~2000 | – |
| Ac-AGGGWVECYWATGRCIEFAGGTGGGK-NH2 (disulfide 8-15 (inferred); not fully specified) [SEQ ID NO:288] | – | no binding |

What follows are binders tested against T1, human KDR-Fc fusion (R&D Systems …) (assay: phage binding screen on KDR-Fc; class legend in paragraph 246).

| Binder | binding result |
| --- | --- |
| PKWCEEDWYYCMIT [phage isolate PKWCEEDWYYCMIT] | binds |
| SDWCRVDWYYCWLM [phage isolate SDWCRVDWYYCWLM] | binds |
| ANWCEEDWYYCFIT [phage isolate ANWCEEDWYYCFIT] | binds |
| ANWCEEDWYYCWIT [phage isolate ANWCEEDWYYCWIT] | binds |
| ANWCEEDWYYCYIT [phage isolate ANWCEEDWYYCYIT] | binds |
